Values quoted from earlier work in paper PMC6504839.
pKd: −log10 of the molar value. Read-outs that look alike come from different tables or passages of the source.

Columns and labels:
[1] = target: integrin αIIbβ3 (Homo sapiens) (UniProt P08514)
[2] = target: integrin αIIbβ3 (Homo sapiens) (UniProt P08514); remark: listed apart in the source

Substance	pKd [1]	pKd [2]
Disagregin (from UniProt P36235)	7.40	
Savignygrin (from UniProt Q8MVZ3)		7.22
